Two molecules from paper PMC12881670, “Investigation into ligand selectivity and bias at the formyl peptide receptor family” (The Journal of Pharmacology and Experimental Therapeutics, 2025) can be followed below.

Where no end group is shown, it is not given here. The star is where a group is joined. For = O=C*

The target of experiment [1] is T1, FLAG-tagged mouse Fpr1 (Mm_Fpr1) (mouse, UniProt P33766 1-364).
T1 sequence (looked up): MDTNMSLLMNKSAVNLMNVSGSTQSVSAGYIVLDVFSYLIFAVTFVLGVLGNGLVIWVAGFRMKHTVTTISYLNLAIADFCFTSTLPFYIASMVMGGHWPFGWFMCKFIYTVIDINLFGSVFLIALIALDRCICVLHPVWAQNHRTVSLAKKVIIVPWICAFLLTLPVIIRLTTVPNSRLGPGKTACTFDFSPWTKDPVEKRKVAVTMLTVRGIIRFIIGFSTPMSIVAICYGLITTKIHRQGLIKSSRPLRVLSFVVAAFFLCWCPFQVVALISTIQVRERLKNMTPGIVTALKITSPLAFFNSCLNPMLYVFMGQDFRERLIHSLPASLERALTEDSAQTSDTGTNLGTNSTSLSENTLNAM

Experiment [2] deals with T2, FLAG-tagged mouse Fpr2 (Mm_Fpr2) (mouse, UniProt O88536 1-351).
T2 sequence (looked up): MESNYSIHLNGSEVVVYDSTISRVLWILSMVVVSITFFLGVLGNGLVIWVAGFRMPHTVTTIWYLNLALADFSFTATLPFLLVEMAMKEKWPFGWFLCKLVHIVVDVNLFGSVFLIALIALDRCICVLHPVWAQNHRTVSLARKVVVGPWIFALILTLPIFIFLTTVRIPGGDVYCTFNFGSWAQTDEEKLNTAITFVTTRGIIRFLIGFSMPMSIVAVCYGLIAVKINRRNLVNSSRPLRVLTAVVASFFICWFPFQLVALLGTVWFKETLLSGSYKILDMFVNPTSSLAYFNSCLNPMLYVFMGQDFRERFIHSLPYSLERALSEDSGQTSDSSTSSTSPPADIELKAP

Experiment [3] addresses T3, FLAG-tagged human FPR1 (Hs_FPR1) (human, UniProt P21462 1-350).
T3 sequence (looked up): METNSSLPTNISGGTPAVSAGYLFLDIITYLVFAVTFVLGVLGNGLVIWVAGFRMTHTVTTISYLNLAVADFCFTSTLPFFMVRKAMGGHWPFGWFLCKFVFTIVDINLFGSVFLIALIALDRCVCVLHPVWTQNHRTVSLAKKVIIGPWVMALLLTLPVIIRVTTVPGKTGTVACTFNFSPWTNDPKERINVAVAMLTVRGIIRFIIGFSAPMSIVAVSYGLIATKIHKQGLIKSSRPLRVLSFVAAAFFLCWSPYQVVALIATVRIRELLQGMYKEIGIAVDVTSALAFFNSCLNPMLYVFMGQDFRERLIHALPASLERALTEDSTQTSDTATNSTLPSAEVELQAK

For experiment [4], the target named is T4, FLAG-tagged human FPR2 (Hs_FPR2) (human, UniProt P25090 1-351).
T4 sequence (looked up): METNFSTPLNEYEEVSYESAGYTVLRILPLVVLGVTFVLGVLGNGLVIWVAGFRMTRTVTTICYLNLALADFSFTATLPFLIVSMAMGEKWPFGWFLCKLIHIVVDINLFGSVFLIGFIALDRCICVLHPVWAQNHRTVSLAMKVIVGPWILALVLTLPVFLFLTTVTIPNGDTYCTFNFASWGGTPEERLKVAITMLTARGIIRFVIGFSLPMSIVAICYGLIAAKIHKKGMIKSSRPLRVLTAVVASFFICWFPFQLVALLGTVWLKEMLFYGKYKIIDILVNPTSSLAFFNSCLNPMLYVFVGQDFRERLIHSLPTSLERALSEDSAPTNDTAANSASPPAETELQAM

Experiment [5] has as its target T1, FLAG-tagged mouse Fpr1 (Mm_Fpr1). This is another data set of the same source.
For experiment [6], the target named is T2, FLAG-tagged mouse Fpr2 (Mm_Fpr2). The source holds these as a separate data set.
The target in experiment [7] is T3, FLAG-tagged human FPR1 (Hs_FPR1). This is another data set of the same source.
The target of experiment [8] is T4, FLAG-tagged human FPR2 (Hs_FPR2). This is another data set of the same source.
Experiment [9] addresses T5, FLAG-Hs_FPR1 C-terminally fused to Renilla Luciferase 8 (human, UniProt P21462 1-350).
T5 sequence (looked up): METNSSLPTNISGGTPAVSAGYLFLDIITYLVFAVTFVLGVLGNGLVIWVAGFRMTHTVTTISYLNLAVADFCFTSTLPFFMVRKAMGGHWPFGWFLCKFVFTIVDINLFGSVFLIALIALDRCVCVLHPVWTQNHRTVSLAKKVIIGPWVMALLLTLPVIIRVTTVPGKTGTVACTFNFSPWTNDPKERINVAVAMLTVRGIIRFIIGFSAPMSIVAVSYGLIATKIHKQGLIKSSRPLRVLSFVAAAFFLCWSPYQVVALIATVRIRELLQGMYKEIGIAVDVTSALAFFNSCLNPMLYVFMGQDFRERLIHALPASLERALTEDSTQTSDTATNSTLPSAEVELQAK
The experiment in a line: cell-based or functional assay.

The target of experiment [10] is T6, FLAG-Hs_FPR2 C-terminally fused to Renilla Luciferase 8 (human, UniProt P25090 1-351).
T6 sequence (looked up): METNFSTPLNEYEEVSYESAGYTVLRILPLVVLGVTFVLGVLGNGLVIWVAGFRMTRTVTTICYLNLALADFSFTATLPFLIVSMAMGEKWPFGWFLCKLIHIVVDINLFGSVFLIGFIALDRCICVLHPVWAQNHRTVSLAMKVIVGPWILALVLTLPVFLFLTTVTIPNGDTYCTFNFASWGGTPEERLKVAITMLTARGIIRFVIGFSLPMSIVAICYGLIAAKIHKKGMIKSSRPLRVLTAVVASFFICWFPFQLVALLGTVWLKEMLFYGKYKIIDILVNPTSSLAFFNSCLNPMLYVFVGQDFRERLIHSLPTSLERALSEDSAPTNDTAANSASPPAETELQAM
The experiment in a line: cell-based or functional assay.

The target in experiment [11] is T7, FLAG-Mm_Fpr1 C-terminally fused to Renilla Luciferase 8 (mouse, UniProt P33766 1-364).
T7 sequence (looked up): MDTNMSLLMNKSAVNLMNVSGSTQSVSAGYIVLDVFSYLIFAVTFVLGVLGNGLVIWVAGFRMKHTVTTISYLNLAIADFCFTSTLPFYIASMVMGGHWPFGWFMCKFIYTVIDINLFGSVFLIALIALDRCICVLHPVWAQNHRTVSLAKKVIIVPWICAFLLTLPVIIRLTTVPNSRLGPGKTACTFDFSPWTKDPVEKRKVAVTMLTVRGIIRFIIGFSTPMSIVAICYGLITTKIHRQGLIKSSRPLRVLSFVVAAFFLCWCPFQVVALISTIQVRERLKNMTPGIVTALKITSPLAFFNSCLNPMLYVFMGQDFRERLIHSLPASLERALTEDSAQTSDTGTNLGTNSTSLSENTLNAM
The experiment in a line: cell-based or functional assay.

Experiment [12] has as its target T8, FLAG-Mm_Fpr2 C-terminally fused to Renilla Luciferase 8 (mouse, UniProt O88536 1-351).
T8 sequence (looked up): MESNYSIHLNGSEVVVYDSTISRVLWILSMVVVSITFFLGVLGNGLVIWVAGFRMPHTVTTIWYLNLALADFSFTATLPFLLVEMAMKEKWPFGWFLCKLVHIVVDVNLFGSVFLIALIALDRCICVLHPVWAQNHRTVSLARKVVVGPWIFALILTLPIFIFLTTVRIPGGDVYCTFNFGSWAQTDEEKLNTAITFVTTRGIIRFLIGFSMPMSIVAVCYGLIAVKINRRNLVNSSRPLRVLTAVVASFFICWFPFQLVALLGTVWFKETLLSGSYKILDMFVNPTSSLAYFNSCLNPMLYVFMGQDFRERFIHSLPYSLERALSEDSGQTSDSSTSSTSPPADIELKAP
The experiment in a line: cell-based or functional assay.

Experiment [13] concerns the target T5, FLAG-Hs_FPR1 C-terminally fused to …. The experiment in a line: cell-based or functional assay. The source holds these as a separate data set.
Experiment [14] deals with T6, FLAG-Hs_FPR2 C-terminally fused to …. The experiment in a line: cell-based or functional assay. The source holds these as a separate data set.
Experiment [15] addresses T7, FLAG-Mm_Fpr1 C-terminally fused to …. In words: cell-based or functional assay. The source holds these as a separate data set.
Experiment [16] concerns the target T8, FLAG-Mm_Fpr2 C-terminally fused to …. In words: cell-based or functional assay. This is another data set of the same source.
In experiment [17] the target is T3, FLAG-tagged human FPR1 (Hs_FPR1). The experiment in a line: flow cytometry on cells; competition binding: HEK293 cells stably expressing the receptor, lifted in PBS, on ice 90 min with 10 nM K(5/6-FAM)-WKYMVm and increasing unlabeled ligand; mean fluorescence of 5000 cells as % of that without competitor; One site-Fit logIC50. Background: Flow cytometry measures light scatter and fluorescence of single cells or particles in a stream.

For For-MLFK [fMet-Leu-Phe-Lys (fMLFK)], the ERK1/2 phosphorylation (Western blot): Emax (% of 1 μM WKYMVm) in [1] was 140%; in experiment [2], 176%; in [3] it was 112%; in experiment [4], 74.3%. Besides, the ERK1/2 phosphorylation (Western blot): Log EC50 (M) is -6.07 log M in [1], -5.91 log M in [2], -8.16 log M in experiment [3] and -5.88 log M in experiment [4]. In addition, the receptor internalization (flow cytometry): Emax (% of 1 μM WKYMVm) in experiment [5] was 179%; in experiment [6] it was 81.6%; in [7], 79.3%; in [8], 99.9%. The receptor internalization (flow cytometry): Log EC50 (M) in [5] is -5.21 log M; in experiment [6], -4.94 log M; in [7], -7.79 log M; in experiment [8], -4.48 log M. The “BRET of receptor-RLuc8 with Venus-mGsi: Emax (% of 1 μM WKYMVm)” value in [9] was determined as 104%; in experiment [10] it was 80.7%; in [11] it was 62.9%; in experiment [12], 82.7%. In addition, the “BRET of receptor-RLuc8 with Venus-mGsi: Log EC50 (M)” value in experiment [9] was -7.07 log M; in experiment [10], -4.57 log M; in [11], -5.02 log M; in experiment [12] it was -4.52 log M. The “BRET of receptor-RLuc8 with Arrestin 3-YFP: Emax (% of 1 μM WKYMVm)” value in experiment [13] came out at 97.4%; in experiment [14], 92.7%; in experiment [15], 95.2%; in experiment [16], 72.5%. The “BRET of receptor-RLuc8 with Arrestin 3-YFP: Log EC50 (M)” value in experiment [13] was -7.45 log M; in experiment [14], -4.44 log M; in experiment [15] it was -5.14 log M; in experiment [16], -4.79 log M. In addition, in [17], the Log IC50 was -6.23 log M. The Max Comp (%) in experiment [17] was determined as 63.3%.
In experiment [2], For-MTPMRKINPLMKLIN [MCT-2 (Formyl-… from Cytochrome b)] showed an ERK1/2 phosphorylation (Western blot): Emax (% of 1 μM WKYMVm) of 169% and an ERK1/2 phosphorylation (Western blot): Log EC50 (M) of -6.96 log M. Also, in experiment [6], the receptor internalization (flow cytometry): Emax (% of 1 μM WKYMVm) turned out to be 43.9% and the receptor internalization (flow cytometry): Log EC50 (M) is -8.24 log M.
